Paper PMC12781765

Tests used:
[1] = molecular target: T1, Venus-tagged Gβ3γ9, P16520;O14610; experiment: BRET-based Gβ3γ9 displacement assay (competition with GαoG92-NLuc); details: chain shown with the change; n = 3; parent: est. 100; read off a plot
T1 chain 1: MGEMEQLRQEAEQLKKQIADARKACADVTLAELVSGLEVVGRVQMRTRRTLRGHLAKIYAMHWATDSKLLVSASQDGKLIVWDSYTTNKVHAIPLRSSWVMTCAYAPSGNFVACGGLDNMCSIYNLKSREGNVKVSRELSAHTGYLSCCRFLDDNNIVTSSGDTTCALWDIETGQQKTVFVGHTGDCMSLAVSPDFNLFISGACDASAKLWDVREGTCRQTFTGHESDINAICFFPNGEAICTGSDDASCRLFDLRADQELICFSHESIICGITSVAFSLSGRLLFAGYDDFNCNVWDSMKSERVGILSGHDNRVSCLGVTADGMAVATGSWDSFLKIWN
T1 chain 2: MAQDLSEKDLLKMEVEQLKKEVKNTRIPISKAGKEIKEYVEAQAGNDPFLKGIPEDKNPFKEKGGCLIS

[2] = molecular target: GFP-Gβ1γ3 (GFP-tagged Gβ1 and GFP-tagged Gγ3), P62873;P63215; experiment: co-immunoprecipitation (GFP nanobody IP, Western blot quantification); details: chain shown with the change; HEK293T cells; n = 4; parent: est. 1.0; read off a plot
Sequence of GFP-Gβ1γ3 (GFP-tagged Gβ1 and GFP-tagged Gγ3), P62873;P63215 (chain, as listed by the source, chain 1 of 2): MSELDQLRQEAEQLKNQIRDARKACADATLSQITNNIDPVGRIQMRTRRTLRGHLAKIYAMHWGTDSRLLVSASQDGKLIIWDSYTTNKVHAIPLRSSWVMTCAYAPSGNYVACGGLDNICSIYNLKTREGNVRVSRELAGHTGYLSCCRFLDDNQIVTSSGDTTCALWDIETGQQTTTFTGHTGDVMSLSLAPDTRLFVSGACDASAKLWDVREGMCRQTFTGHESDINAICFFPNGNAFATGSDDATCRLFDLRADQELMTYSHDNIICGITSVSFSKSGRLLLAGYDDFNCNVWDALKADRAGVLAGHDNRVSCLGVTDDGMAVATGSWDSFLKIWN
Sequence of GFP-Gβ1γ3 (GFP-tagged Gβ1 and GFP-tagged Gγ3), P62873;P63215 (chain, as listed by the source, chain 2 of 2): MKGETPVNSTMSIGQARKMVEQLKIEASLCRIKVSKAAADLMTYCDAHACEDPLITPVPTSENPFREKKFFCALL

GFP-Ric8A, Q9NPQ8 = molecular target: T2, GFP-Ric8A, Q9NPQ8; experiment: as above; details: chain shown with the change; HEK293T cells; n = 4; parent: est. 1.0; read off a plot
T2 chain: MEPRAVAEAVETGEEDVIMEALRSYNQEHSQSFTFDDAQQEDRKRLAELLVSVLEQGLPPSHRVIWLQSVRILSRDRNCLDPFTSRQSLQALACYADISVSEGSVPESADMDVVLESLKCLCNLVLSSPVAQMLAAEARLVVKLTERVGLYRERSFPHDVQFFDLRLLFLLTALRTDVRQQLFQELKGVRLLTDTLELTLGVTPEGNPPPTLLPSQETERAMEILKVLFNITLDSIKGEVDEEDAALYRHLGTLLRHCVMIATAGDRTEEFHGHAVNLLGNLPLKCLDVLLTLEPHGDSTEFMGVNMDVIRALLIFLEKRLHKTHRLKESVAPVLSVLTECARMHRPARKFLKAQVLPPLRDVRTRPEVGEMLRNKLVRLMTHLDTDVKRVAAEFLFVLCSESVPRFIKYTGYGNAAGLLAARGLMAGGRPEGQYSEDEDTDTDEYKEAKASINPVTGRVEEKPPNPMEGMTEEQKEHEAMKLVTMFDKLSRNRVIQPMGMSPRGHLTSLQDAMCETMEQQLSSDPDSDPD

- percent of parent (% of Gαo wild-type) [1]: 30
- ratio to parent (folds over Gαo wild-type) [2]: 0.29
- ratio to parent (folds over Gαo wild-type) (GFP-Ric8A, Q9NPQ8): 6.2
B1: Gαo wild-type (non-tagged), P09471-1 L39_G40insV (protein)
chain: MGCTLSAEERAALERSKAIEKNLKEDGISAAKDVKLLLLVGAGESGKSTIVKQMKIIHEDGFSGEDVKQYKPVVYSNTIQSLAAIVRAMDTLGIEYGDKERKADAKMVCDVVSRMEDTEPFSAELLSAMMRLWGDSGIQECFNRSREYQLNDSAKYYLDSLDRIGAADYQPTEQDILRTRVKTTGIVETHFTFKNLHFRLFDVGGQRSERKKWIHCFEDVTAIIFCVALSGYDQVLHEDETTNRMHESLMLFDSICNNKFFIDTSIILFLNKKDLFGEKIKKSPLTICFPEYTGPNTYEDAAAYIQAQFESKNRSPNKEIYCHMTCATDTNNIQVVFDAVTDIIIANNLRGCGLY
